Substitutions are numbered along the chain they refer to. In names and notes the source's numbering stands. Several values for one entry are separate records, joined by “and”; a condition that tells them apart may be missing. Identical values can stand only once.
T1: biotin-labeled cynomolgus monkey CD137 fused to human IgG1 Fc fragment (cynomolgus monkey; human, UniProt Q07011 24-186, limits assumed, biotin-labeled)
T1 construct: also called cyno CD137-Fc; not shown: human IgG1 Fc fragment
T1 chain: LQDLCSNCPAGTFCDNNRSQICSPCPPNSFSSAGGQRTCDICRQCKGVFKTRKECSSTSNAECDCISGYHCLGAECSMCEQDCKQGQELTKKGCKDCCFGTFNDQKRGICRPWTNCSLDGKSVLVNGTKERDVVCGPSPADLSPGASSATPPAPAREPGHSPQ

B1: CE115HA000 V11L/D72A/L78I/D101Q with GGS inserted between Kabat 99 and 100, one-arm antibody (antibody)
chain 1: QVQLVESGGGLVQPGRSLRLSCAASGFTFSNAWMHWVRQAPGKGLEWVAQIKAKSNNYATYYAESVKGRFTISRADSKNSIYLQMNSLKTEDTAVYYCRYVHYGAGGSYYGVQAWGQGTTVTVSSASTKGPSVFPLAPSSKSTSGGTAALGCLVKDYFPEPVTVSWNSGALTSGVHTFPAVLQSSGLYSLSSVVTVPSSSLGTQTYICNVNHKPSNTKVDKKVEPKSCDKTHTCPPCPAPEAAGGPSVFLFPPKPKDTLMISRTPEVTCVVVDVSHEDPEVKFNWYVDGVEVHNAKTKPREEQYASTYRVVSVLTVLHQDWLNGKEYKCKVSNKALPAPIEKTISKAKGQPREPQVYTLPPSRCELTKNQVSLSCAVKGFYPSDIAVEWESNGQPENNYKTTPPVLDSDGSFFLVSKLTVDKSRWQQGNVFSCSVMHEALHNHYTQKSLSLSPDYKDDDDK
chain 2: EPKSSDKTHTCPPCPAPELLGGPSVFLFPPKPKDTLMISRTPEVTCVVVDVSHEDPEVKFNWYVDGVEVHNAKTKPREEQYNSTYRVVSVLTVLHQDWLNGKEYKCKVSNKALPAPIEKTISKAKGQPREPQVCTLPPSRDELTKNQVSLWCLVKGFYPSDIAVEWESNGQPENNYKTTPPVLDSDGSFFLYSKLTVDKSRWQQGNVFSCSVMHEALHNRYTQKSLSLSP
chain 3: DIVMTQSPLSLPVTPGEPASISCRSSQSLVHSNRNTYLHWYQQKPGQAPRLLIYKVSNRFSGVPDRFSGSGSGTDFTLKISRVEAEDVGVYYCGQGTQVPYTFGQGTKLEIKRTVAAPSVFIFPPSDEQLKSGTASVVCLLNNFYPREAKVQWKVDNALQSGNSQESVTEQDSKDSTYSLSSTLTLSKADYEKHKVYACEVTHQGLSSPVTKSFNRGEC
B2: CE115HA000 one-arm antibody (antibody, human IgG1, kappa, L234A L235A, N297A)
heavy: QVQLVESGGGVVQPGRSLRLSCAASGFTFSNAWMHWVRQAPGKGLEWVAQIKAKSNNYATYYAESVKGRFTISRDDSKNSLYLQMNSLKTEDTAVYYCRYVHYGAYYGVDAWGQGTTVTVSSASTKGPSVFPLAPSSKSTSGGTAALGCLVKDYFPEPVTVSWNSGALTSGVHTFPAVLQSSGLYSLSSVVTVPSSSLGTQTYICNVNHKPSNTKVDKKVEPKSCDKTHTCPPCPAPEAAGGPSVFLFPPKPKDTLMISRTPEVTCVVVDVSHEDPEVKFNWYVDGVEVHNAKTKPREEQYASTYRVVSVLTVLHQDWLNGKEYKCKVSNKALPAPIEKTISKAKGQPREPQVYTLPPSRCELTKNQVSLSCAVKGFYPSDIAVEWESNGQPENNYKTTPPVLDSDGSFFLVSKLTVDKSRWQQGNVFSCSVMHEALHNHYTQKSLSLSPDYKDDDDK
chain: B1 chain 2
light: B1 chain 3
notes: one-arm antibody
B3: CE115HA000 V11L/D72A/L78I/D101Q with GGSGGS inserted between Kabat 99 and 100, one-arm antibody (antibody)
chain 1: QVQLVESGGGLVQPGRSLRLSCAASGFTFSNAWMHWVRQAPGKGLEWVAQIKAKSNNYATYYAESVKGRFTISRADSKNSIYLQMNSLKTEDTAVYYCRYVHYGAGGSGGSYYGVQAWGQGTTVTVSSASTKGPSVFPLAPSSKSTSGGTAALGCLVKDYFPEPVTVSWNSGALTSGVHTFPAVLQSSGLYSLSSVVTVPSSSLGTQTYICNVNHKPSNTKVDKKVEPKSCDKTHTCPPCPAPEAAGGPSVFLFPPKPKDTLMISRTPEVTCVVVDVSHEDPEVKFNWYVDGVEVHNAKTKPREEQYASTYRVVSVLTVLHQDWLNGKEYKCKVSNKALPAPIEKTISKAKGQPREPQVYTLPPSRCELTKNQVSLSCAVKGFYPSDIAVEWESNGQPENNYKTTPPVLDSDGSFFLVSKLTVDKSRWQQGNVFSCSVMHEALHNHYTQKSLSLSPDYKDDDDK
chain 2: B1 chain 2
chain 3: B1 chain 3
B4: CE115HA000 V11L/D72A/L78I/D101Q without insertion, one-arm antibody (antibody, human IgG1, kappa, L234A L235A, N297A, name in Kabat numbering)
heavy: B2 heavy with V11L, D75A, L81I, D110Q
chain: B1 chain 2
light: B1 chain 3
notes: one-arm antibody; 'No insertion' read as the altered H chain without linker; also called No insertion
B5: CE115HA000 V11L/D72A/L78I/D101Q with GGGSGGGS inserted between Kabat 99 and 100, one-arm antibody (antibody)
chain 1: QVQLVESGGGLVQPGRSLRLSCAASGFTFSNAWMHWVRQAPGKGLEWVAQIKAKSNNYATYYAESVKGRFTISRADSKNSIYLQMNSLKTEDTAVYYCRYVHYGAGGGSGGGSYYGVQAWGQGTTVTVSSASTKGPSVFPLAPSSKSTSGGTAALGCLVKDYFPEPVTVSWNSGALTSGVHTFPAVLQSSGLYSLSSVVTVPSSSLGTQTYICNVNHKPSNTKVDKKVEPKSCDKTHTCPPCPAPEAAGGPSVFLFPPKPKDTLMISRTPEVTCVVVDVSHEDPEVKFNWYVDGVEVHNAKTKPREEQYASTYRVVSVLTVLHQDWLNGKEYKCKVSNKALPAPIEKTISKAKGQPREPQVYTLPPSRCELTKNQVSLSCAVKGFYPSDIAVEWESNGQPENNYKTTPPVLDSDGSFFLVSKLTVDKSRWQQGNVFSCSVMHEALHNHYTQKSLSLSPDYKDDDDK
chain 2: B1 chain 2
chain 3: B1 chain 3
B6: CE115HA000 V11L/D72A/L78I/D101Q with GGSGGGS inserted between Kabat 99 and 100, one-arm antibody (antibody)
chain 1: QVQLVESGGGLVQPGRSLRLSCAASGFTFSNAWMHWVRQAPGKGLEWVAQIKAKSNNYATYYAESVKGRFTISRADSKNSIYLQMNSLKTEDTAVYYCRYVHYGAGGSGGGSYYGVQAWGQGTTVTVSSASTKGPSVFPLAPSSKSTSGGTAALGCLVKDYFPEPVTVSWNSGALTSGVHTFPAVLQSSGLYSLSSVVTVPSSSLGTQTYICNVNHKPSNTKVDKKVEPKSCDKTHTCPPCPAPEAAGGPSVFLFPPKPKDTLMISRTPEVTCVVVDVSHEDPEVKFNWYVDGVEVHNAKTKPREEQYASTYRVVSVLTVLHQDWLNGKEYKCKVSNKALPAPIEKTISKAKGQPREPQVYTLPPSRCELTKNQVSLSCAVKGFYPSDIAVEWESNGQPENNYKTTPPVLDSDGSFFLVSKLTVDKSRWQQGNVFSCSVMHEALHNHYTQKSLSLSPDYKDDDDK
chain 2: B1 chain 2
chain 3: B1 chain 3
B7: CE115HA000 V11L/D72A/L78I/D101Q with GGSGGSGGS inserted between Kabat 99 and 100, one-arm antibody (antibody)
chain 1: QVQLVESGGGLVQPGRSLRLSCAASGFTFSNAWMHWVRQAPGKGLEWVAQIKAKSNNYATYYAESVKGRFTISRADSKNSIYLQMNSLKTEDTAVYYCRYVHYGAGGSGGSGGSYYGVQAWGQGTTVTVSSASTKGPSVFPLAPSSKSTSGGTAALGCLVKDYFPEPVTVSWNSGALTSGVHTFPAVLQSSGLYSLSSVVTVPSSSLGTQTYICNVNHKPSNTKVDKKVEPKSCDKTHTCPPCPAPEAAGGPSVFLFPPKPKDTLMISRTPEVTCVVVDVSHEDPEVKFNWYVDGVEVHNAKTKPREEQYASTYRVVSVLTVLHQDWLNGKEYKCKVSNKALPAPIEKTISKAKGQPREPQVYTLPPSRCELTKNQVSLSCAVKGFYPSDIAVEWESNGQPENNYKTTPPVLDSDGSFFLVSKLTVDKSRWQQGNVFSCSVMHEALHNHYTQKSLSLSPDYKDDDDK
chain 2: B1 chain 2
chain 3: B1 chain 3
B8: dBBDu179 (antibody, IgG1, V domains shown)
VH: QVQLVESGGGLVQPGRSLRLSCAASGFTFSNAWMHWVRQAPGKGLEWVAQIKDRSNQYATYYAPSVKGRFTISRDDSKNSIYLQMNSLKTEDTAVYYCHYVHYASASTVLPAFGVDAWGQGTTVTVSS
VL: DIVMTQSPLSLPVTPGEPASISCRSSQSLVHSNRNTYLHWYQQKPGQAPRLLIYKVSNRFSGVPDRFSGSGSGTDFTLKISRVEAEDVGVYYCGQGTQVPYTFGQGTKLEIK
notes: IgG1
B9: dBBDu174 (antibody, IgG1, V domains shown)
VH: QVQLVESGGGLVQPGRSLRLSCAASGFTFSSAWMHWVRQAPGKGLEWVAQIKDRASAYNAYYAESVKGRFTISRDDSKNSIYLQMNSLKTEDTAVYYCRYVHYPSYVSFLPYYGVDAWGQGTTVTVSS
VL: B8 VL
notes: IgG1
B10: dBBDu217 (antibody, IgG1, V domains shown)
VH: QVQLVESGGGLVQPGRSLRLSCAASGFTFSNAWMHWVRQAPGKGLEWVAQIKDRQQGYATYYAPSVKGRFTISRDDSKNSIYLQMNSLKTEDTAVYYCRFVHYHLAGYGYYGVDAWGQGTTVTVSS
VL: B8 VL
notes: IgG1
B11: dBBDu183 (antibody, IgG1, V domains shown)
VH: B8 VH with R54K, S55G, Q57A, T60A
VL: B8 VL
notes: IgG1
B12: dBBDu139 (antibody, IgG1, V domains shown)
VH: QVQLVESGGGLVQPGRSLRLSCAASGFTFSNAWMHWVRQAPGKGLEWVAQIKDRGNAYNAYYAESVKGRFTISRDDSKNSIYLQMNSLKTEDTAVYYCRFVHYRHPLLHIQYGVDAWGQGTTVTVSS
VL: B8 VL
notes: IgG1
B13: dBBDu222 (antibody, IgG1, V domains shown)
VH: QVQLVESGGGLVQPGRSLRLSCAASGFTISSAWMHWVRQAPGKGLEWVAQIKDRANGYAAYYAPSVKGRFTISRDDSKNSIYLQMNSLKTEDTAVYYCRYVHYATAYDGFYGFGVDAWGQGTTVTVSS
VL: B8 VL
notes: IgG1
B14: DADU01_3#001 (antibody, IgG1, V domains shown)
VH: QVQLVESGGGLVQPGRSLRLSCAASGFTFSIAWMHWVRQAPGKGLEWVAQIKDRVNAYEAYYAPSVKGRFTISRDDSKNSIYLQMNSLKTEDTAVYYCRYVHYASYYDLLGYGGVDAWGQGTTVTVSS
VL: B8 VL
notes: IgG1; also called dBBDu_126; dBBDu126
B15: DADU01_3#018 (antibody, IgG1, V domains shown)
VH: B8 VH with S55A, Q57S, A59N, T60A, A104S, S105A, V109L, A112S
VL: B8 VL
notes: IgG1; also called dBBDu123
B16: DXDU01_3#094 (antibody, IgG1, V domains shown)
VH: B8 VH with R54K, S55G, Q57A, T60A, S107A, T108G, V109G, A112G
VL: B8 VL
notes: IgG1; also called dBBDu121
B17: DXDU01_3#051 (antibody, IgG1, V domains shown)
VH: B8 VH with S55G, N56Q, A59N, T60A, T108S, A112G, F113Y
VL: B8 VL
notes: IgG1; also called dBBDu127

The binders below were run against biotinylated CD3 epsilon epitope peptide (assay: SPR, method of Ref. Ex. 3, one-arm Ab).

Kd	Binder
63.1 nM	B1
110 nM	B2
34.6 nM and 31.1 nM	B3
6.96 nM	B4
41.3 nM and 37.5 nM	B5
43.5 nM and 34.3 nM	B6
43.9 nM and 35.4 nM	B7

Biological target: T1, biotin-labeled cynomolgus monkey CD137 …
Experiment: ELISA, IgG

binding result	Binder
binds	B8
binds	B9
binds	B10
binds	B11
binds	B12
binds	B13

The binders below were run against T2, biotin labeled human IgG1 Fc (human, UniProt P01857-1 104-330 = IgG part, limits assumed, biotin-labeled) (assay: bead ELISA, IgG).
T2 construct: domain: Fc region; control antigen; also called human Fc
Protocol: First, 20 micro g of Streptavidin-coated magnetic beads MyOne-T1 beads was washed three-times with blocking buffer including 0.5× block Ace, 0.02% Tween and 0.05% ProClin 300 and then blocked with this blocking buffer at room temperature for 60 minutes or more. […] After that each well was washed with TBST. […] The plate was incubated for one hour. […] 2 minutes later the fluorescence of each well was detected.

RLU [RLU]	Binder
1760	B14
1900	B15
2370	B16
2910	B17

From US20200377595A1 (Chugai, published 2020)
